From the DeepSol protein solubility set

Assay: soluble on expression in E. coli; label from the status in PepcDB or PDB records

Sequence | soluble on expression in E. coli
MGSDKIHHHHHHMSNTPIELKGSSFTLSVVHLHEAEPKVIHQALEDKIAQAPAFLKHAPVVLNVSALEDPVNWSAMHKAVSATGLRVIGVSGCKDAQLKAEIEKMGLPILTEGKEKAPRPAPTPQAPAQNTTPVTKTRLIDTPVRSGQRIYAPQCDLIVTSHVSAGAELIADGNIHVYGMMRGRALAGASGDRETQIFCTNLMAELVSIAGEYWLSDQIPAEFYGKAARLQLVENALTVQPLN | not soluble
MSLYQHGYHAGNFADVIKHITLTRLLAYLTHKDKPLFYLETHSGRGIYDLKDKQSLKTEEYKEGINPVWLDRENLPSLFLEYISVIKQINLNSTLSYYPGSPYFAINQLRSQDRLYLCELHPTEYNFLLKLPHFNKKVYVNHTDGVSKLNALLPPPEKRGLIFIDPSYERKEEYKEIPYAIKNAYSKFSTGLYCVWYPVVNKAWTEQFLRKMREISSKSVRIELHLNPLINEGMTGCGLWIINPPYTFPSEIKLVLETLTTYFNPGSSSYMIESGSKLCHGLKGIITITTDPNSSSVDKLAAALEHHHHHH | soluble
MSLADERDQLKSIQADIAAKERAVRQKQQQRASLLAQLKKQEEAISEATRKLRETQNTLNQLNKQIDEMNASIAKLEQQKAAQERSLAAQLDAAFRQGEHTGIQLILSGEESQRGQRLQAYFGYLNQARQETIAQLKQTREEVAMQRAELEEKQSEQQTLLYEQRAQQAKLTQALSERKKTLAGLESSIQQGQQQLSELRANESRLRNSIARAEAAAKARAEREAREAQAVRDRQKEATRKGTTYKPTESEKSLMSRTGGLGAPRGQAFWPVRGPTLHRYGEQLQGELRWKGMVIGASEGTEVKAIADGRVILADWLQGYGLVVVVEHGKGDMSLYGYNQSALVSVGSQVRAGQPIALVGSSGGQGRPSLYFEIRRQGQAVNPQPWLGREGHHHHHH | soluble
GPGSMKKTVAAAPPKSPAPAKSKISVTRTGVNTTYPMPPPMPEKNYAPFFAEGCQTIAASKASMPPVQPASPLPPMHSAPPTASVVSNSIPPSSPATAPGERSPAVAARSVPTRFSPATVPRHHMNPNATEFMPGRRNGPDGGLEALPTSTADMELAKTPAGAAAAAVHAPSLPGAVRRSLQNSPIIQPSRLSVKSASEIEAISKNSALNAAAAAYVPQRTLARVVLTQPSPLALAPSEDPAKNNIEMMLDDLWCLFYLPTTLGENIKEEDYNPTLVFRVDSILTFWRVVNNIAAPSELQLSTLYLFRDGIDPKWEDPANRDGGIVKVKATAAQVDEAWELLLCRTIGDSWSPSVRETVNGVVLKVRERAYWLELWVTKNSSALQKDLAELWHPILGASFATTYLTHAMMQERSHAAAALAAEKQKKNRRRY | soluble
MVSIELRDIIKRFGEFELKVSLSVKDGELLTLLGPSGCGKTTTLRIIAGLEKPDKGRVYFDGRDITDLPPYERNIGLVFQDYALFPHMTVFKNVAFGLEVRRVPRMEIEKRVREVLDLVGLRGFENRLPEELSGGQQQRVALARALVIEPDVLLLDEPLSNLDAKVREKLRGEIKRIVKELGITTIYVTHDQEEAMVLSDRIAVMNFGRIEQVGEPYDLYYNPKNEFVANFLGISNIVELEAKEGRACLGDLCFEVGREGKGKIFFRPENVAVGEGIEAEVIGYELLPGRVRLRLSIEGREIIAEELLSRIGKKIPKKVRIRVREFKILP | soluble
MPKKRENRGRRKGDKGHVGYISCDQCGARVPEDKAVCVTKMYSPVDASLASELEKKGAIIARYPVTKCYCVNCAVFLGIIKIRAENERKQKARLRLEHHHHHH | not soluble
MVYFAYGSNLCLEQMKKRCPEAIPMISVHLDDYKLVYNKYADIIPCEGEKVYGAIYEISLNDLKNLDKYEEYSDLYEKIDLIVQDINGISYEAFAYVMNEKGDKTPDKRYLDIINKGYEDWGIIY | not soluble
NIKNILSERVSAAMVAAGLPEGTNPAISLSNRPQFGDYQANGVMGAAKKLKTNPRELATKVVAELDLDGIASKIELAGPGFINIHLDESWLAAQLNEVAQDDFIGVAQRGTT | not soluble
HPMCKEHEDEKINIYCLTCEVPTCSMCKVFGIHKACEVAPLQSVFQGQKTE | soluble
MIIRDENYFTDKYELTRTHSEVLEAVKVVKPGKTLDLGCGNGRNSLYLAANGYDVDAWDKNAMSIANVERIKSIENLDNLHTRVVDLNNLTFDRQYDFILSTVVLMFLEAKTIPGLIANMQRCTKPGGYNLIVAAMDTADYPCTVGFPFAFKEGELRRYYEGWERVKYNEDVGELHRTDANGNRIKLRFATMLARKKLEHHHHHH | not soluble
